Data published in patent US20240117029A1 (Hoffmann-La Roche, published 2024).

B1: 1A4//2F6-PGLALA (bispecific antibody, V domains shown)
VH 1: QSLEESGGDLVKPGASLTLTCTASELDFYWICWVRQAPGKGLEWIACIGAGSSGSTYYASWAKGRFTVSKTSSTTVTLQMTSLTAADTATYFCARTGTEFTYYSLWGPGTLVTVSS
VL 1: ALVMTQTPSSVSAAVGGTVTINCQASQSVYNNNMAWYQQKPGQPPKLLIYTASSLASGVPSHFRGSGSGTQFTLTISDLESDDAATYYCAGYKSYSNDEYGFGGGTEVVVK
VH 2: QSLEESGGGLVQPEGSLTLTCTASGFSFNNNYYMCWVRQAPGKGLEWIGCISTDDSNTHYASWAQGRFTISKASSTALTLQVAGLTVADMATYFCARDAHFTSYGYGFDLWGPGTLVTVSS
VL 2: DIVMTQTPASVSAAVGGTVSINCRASEDIENLVAWYQQKPGQPPKLLIYQASKLASGVPSRFKGSGSGAEFTLTIGDLESADAATYYCQGDYGSGWIMYSFGGGTDLVVK
notes: CrossMab: 1A4 arm VH/VL crossed, 2F6 arm non-crossed with CH1/CL charge modifications, knobs-into-holes, human IgG1 with L234A, L235A, P329G; also called CCL2-0054; P1AA3459
B2: 1A4//2F6-WT IgG1 (bispecific antibody, V domains shown)
VH 1: QSLEESGGDLVKPGASLTLTCTASELDFYWICWVRQAPGKGLEWIACIGAGSSGSTYYASWAKGRFTVSKTSSTTVTLQMTSLTAADTATYFCARTGTEFTYYSLWGPGTLVTVSS
VL 1: ALVMTQTPSSVSAAVGGTVTINCQASQSVYNNNMAWYQQKPGQPPKLLIYTASSLASGVPSHFRGSGSGTQFTLTISDLESDDAATYYCAGYKSYSNDEYGFGGGTEVVVK
VH 2: QSLEESGGGLVQPEGSLTLTCTASGFSFNNNYYMCWVRQAPGKGLEWIGCISTDDSNTHYASWAQGRFTISKASSTALTLQVAGLTVADMATYFCARDAHFTSYGYGFDLWGPGTLVTVSS
VL 2: DIVMTQTPASVSAAVGGTVSINCRASEDIENLVAWYQQKPGQPPKLLIYQASKLASGVPSRFKGSGSGAEFTLTIGDLESADAATYYCQGDYGSGWIMYSFGGGTDLVVK
notes: CrossMab: 1A4 arm VH/VL crossed, 2F6 arm non-crossed with CH1/CL charge modifications, knobs-into-holes, human IgG1 wild type Fc; also called CCL2-0057; P1AA3400
B3: ABN912 (antibody, human IgG1, V domains shown)
VH: EVQLVQSGGGLVQPGGSLRLSCAASGFTFSHYWMSWVRQAPGKGLEWLANIEQDGSEKYYVDSVKGRFTISRDNAKNSLYLQMNSLRAEDTAVYFCARDLEGLHGDGYFDLWGRGTLVTVSS
VL: AIQLTQSPSSLSASVGDRVILTCRASQGVSSALAWYQQKPGKAPKLLIYDASSLESGVPSRFSGSGSGPDFTLTISSLQPEDFATYFCQQFNSYPLTFGGGTKVEIK
notes: Generated as human IgG1 wild type and IgG1 PGLALA with kappa light chain; also called AB912; CCL2-0003
B4: Humanized 11K2 (antibody, human IgG1, V domains shown)
VH: QVQLVQSGAEVKKPGSSVKVSCKASGLTISDTYMHWVRQAPGQGLEWMGRIDPANGNTKFDPKFQGRVTITADTSTSTAYMELSSLRSEDTAVYYCARGVFGFFDYWGQGTTVTVSS
VL: DIQMTQSPSSLSASVGDRVTITCKATEDIYNRLAWYQQKPGKAPKLLISGATSLETGVPSRFSGSGSGTDYTLTISSLQPEDFATYYCQQFWSAPYTFGGGTKVEIK
notes: Generated as human IgG1 wild type and IgG1 PGLALA with kappa light chain; also called CCL2-0002; humanized 11k2 IgG1

How the values were obtained:
[1] = molecular target: T1, human CCL2 (MCP1) - wild type (wt) (human, UniProt P13500 24-99); test: SPR, 25 C, pH 7.4, antibody captured via anti-human Fc on C1 chip, wt CCL2 as analyte, 1:1 model
T1 construct: Entry is without signal peptide; Made in-house or bought from R&D Systems (279-MC), depending on the assay; monomer-dimer equilibrium; also called wt human CCL2; hCCL2
Experimental: The sample and system buffer was PBS-T (10 mM phosphate buffered saline including 0.05% Tween20) pH 7.4. The flow cell was set to 25° C.—and the sample block set to 12° C.—and primed with running buffer twice. The bispecific antibody was captured by injecting a 2 μg/ml solution for 60 sec at a flow rate of 10 μl/min. Association was measured by injection of human CCL2 (wt) in various concentrations in solution for 150 sec at a flow rate of 30 μl/min starting with 30 nM in 1:10 dilutions. The dissociation phase was monitored for up to 1200 sec and triggered by switching from the sample solution to running buffer. […] Bulk refractive index differences were corrected by subtracting the response obtained from a goat anti human IgG Fc surface. Blank injections are also subtracted (=double referencing). For calculation of kinetic parameters, the Langmuir 1:1 model was used.

[2] = molecular target: T1, human CCL2 (MCP1) - wild type (wt); test: SPR Biacore T200, 37 C, antibody captured, CCL2 as analyte, 1:1 model
Experimental: (§1) Antibody clone supernatants were diluted 1:2 in system buffer and were captured for 1 min at 5 μl/min. […] Analyte kinetics were performed at 30 μl/min. […] Analytes were injected at 90 nM highest concentration. The analyte contact time was 3 min and the dissociation time was 10 min. The Biaevaluation software V.3.0 was used according to the instructions of the manufacturer GEHC. A 1:1 binding model with RMAX local was applied to apparently estimate kinetic rates.

[3] = molecular target: T2, human CCL2 (MCP1) - P8A variant (human, UniProt P13500 24-99); test: as above
T2 construct: Entry is without signal peptide; P8A prevents dimer formation (pure monomer); made in-house; also called monomeric human CCL2; monomeric CCL2
Experimental: as §1

[4] = molecular target: T1, human CCL2 (MCP1) - wild type (wt); test: SPR Biacore T200, 25 C, pH 5.5, antibody captured via anti-human Fc, 1:1 model
Experimental: (§2) An antibody capture system was established. […] The capture system was regenerated by an injection at 20 μl/min with HBS buffer (100 mM HEPES pH 7.4, 1.5 M NaCl, 0.05% (w/v) Tween 20), followed by a 1 min 15 sec injection with 10 mM NaOH and two 10 mM glycine buffer pH 2.5 injections for 1 min. Antibodies were captured were injected for 30 sec at 10 μl/min at 80 nM concentration diluted in the respective system buffer. […] The analyte contact time was 3 min and the dissociation time was 10 min. Analyte kinetics were performed at 50 μl/min.
(§3) The Biaevaluation software V.3.0 was used according to the instructions of the manufacturer GEHC. A 1:1 binding model with RMAX local was applied to determine kinetic rates.

[5] = molecular target: T1, human CCL2 (MCP1) - wild type (wt); test: SPR Biacore T200, 25 C, pH 5.9, antibody captured via anti-human Fc, 1:1 model
Experimental: as §2, §3

[6] = molecular target: T1, human CCL2 (MCP1) - wild type (wt); test: SPR Biacore T200, 25 C, pH 6.3, antibody captured via anti-human Fc, 1:1 model
Experimental: as §2, §3

[7] = molecular target: T1, human CCL2 (MCP1) - wild type (wt); test: SPR Biacore T200, 25 C, pH 6.7, antibody captured via anti-human Fc, 1:1 model
Experimental: as §2, §3

[8] = molecular target: T1, human CCL2 (MCP1) - wild type (wt); test: SPR Biacore T200, 25 C, pH 7.1, antibody captured via anti-human Fc, 1:1 model
Experimental: as §2, §3

[9] = molecular target: T1, human CCL2 (MCP1) - wild type (wt); test: SPR Biacore T200, 25 C, pH 7.4, antibody captured via anti-human Fc, 1:1 model
Experimental: as §2, §3

[10] = molecular target: T1, human CCL2 (MCP1) - wild type (wt); test: SPR Biacore T200, 25 C, pH 7.9, antibody captured via anti-human Fc, 1:1 model
Experimental: as §2, §3

[11] = molecular target: T1, human CCL2 (MCP1) - wild type (wt); test: SPR Biacore T200, 25 C, pH 8.3, antibody captured via anti-human Fc, 1:1 model
Experimental: as §2, §3

[12] = molecular target: T1, human CCL2 (MCP1) - wild type (wt); test: cell-based or functional assay

| Binder | binding result [1] | T½ [2] [h] | T½ [3] [h] | t½-diss. [4] [h] | t½-diss. [5] [h] | t½-diss. [6] [h] | t½-diss. [7] [h] | t½-diss. [8] [h] | t½-diss. [9] [h] | t½-diss. [10] [h] | t½-diss. [11] [h] | IC50, inhibition of THP-1 migration towards recombinant huCCL2 [12] [µg/mL] |
| --- | --- | --- | --- | --- | --- | --- | --- | --- | --- | --- | --- | --- |
| B1 | binds | – | – | – | – | – | – | – | – | – | – | – |
| B2 | binds | – | – | – | – | – | – | – | – | – | – | – |
| B3 | – | 0.55 | 0.417 | 0.0005 | 0.0167 | 0.05 | 0.133 | 0.333 | 0.55 | 0.417 | 0.583 | – |
| B4 | – | 1.97 | 1.93 | 1.97 | 4.78 | 19.2 | 4.87 | 3.58 | 2.72 | 2.75 | 19.2 | 0.7 |
